Patent US20220411517A1 (LEO PHARMA A S, published 2022)

T1: human IL1RAcP domain 3 (AG-12127) (human)
T1 construct: also called domain 3 of human IL-1RAcP
T1 chain: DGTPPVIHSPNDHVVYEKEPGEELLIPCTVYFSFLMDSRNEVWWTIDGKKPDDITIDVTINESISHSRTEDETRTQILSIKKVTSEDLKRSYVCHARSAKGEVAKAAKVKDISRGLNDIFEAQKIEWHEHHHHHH

T2: human IL1RAcP domain 1 (AG-12335) (human)
T2 construct: also called domain 1 of human IL-1RAcP
T2 chain: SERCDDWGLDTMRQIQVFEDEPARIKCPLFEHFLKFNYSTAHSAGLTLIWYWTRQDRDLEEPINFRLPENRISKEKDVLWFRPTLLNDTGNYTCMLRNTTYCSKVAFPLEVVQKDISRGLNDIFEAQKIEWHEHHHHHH

B1: R001031 (CAN04) (antibody, human IgG1, kappa, V domains shown)
VH: QVQLVQSGAEVKKPGSSVKVSCKASGYAFSSSWMNWVRQAPGQGLEWMGRIYPGDGNTHYAQKFQGRVTLTADKSTSTAYMELSSLRSEDTAVYYCGEGYLDPMDYWGQGTLVTVSS
VL: DIQMTQSPSSLSASVGDRVTITCSASQGINNYLNWYQQKPGKAPKLLIHYTSGLHAGVPSRFSGSGSGTDYTLTISSLQPEDVATYYCQQYSILPWTFGGGTKVEIKR
notes: Variable domains of prior art CAN04 on human IgG1 kappa constant regions with AEASS
B2: h11C5 YKD (antibody, human IgG1, kappa, V domains shown)
VH: EVQLVESGGGLVQPGGSLRLSCAASGFTFSNYAMSWVRQAPGKGLEWVATVTEGGDYNYYLDDVKGRFTISRDNAKNSLYLQMNSLRAEDTAVYYCARDDWPYFFDYWGQGTLVTVSS
VL: DIQMTQSPSSLSASVGDRVTITCRASENIYSNLAWYQQKPGKSPKLLVYGYKNLADVPSRFSGSGSGTDYTLTISSLQPEDFATYYCQHFKTTPRTFGGGTKVEIKR
notes: Variable domains of h11C5 YKD on the same modified IgG1 kappa constant regions (AEASS); Printed as 'h1105' in much of the text; also called h1105
B3: Y024084_h_IgG1f_AEASS (antibody, V domains shown)
VH: QVQLVQSGAEVKKPGASVKVSCKASGYTFTSYYMHWVRQAPGQGLEWMGIINPSGGSTSYAQKFQGRVTMTRDTSTSTVYMELSSLRSEDTAVYYCARGFVTSGIDYWGQGTLVTVSS
VL: QSVLTQPPSVSAAPGQKVTISCSGSSSNIGNNYVSWYQQLPGTAPKLLIYDNNKRPSGIPDRFSGSKSGTSATLGITGLQTEDEADYYCQTWTYTGRLWIVFGGGTKLTVLG
notes: also called Morphosys 24084; Mor Y024084
B4: Y024148_h_IgG1f_AEASS (antibody, V domains shown)
VH: EVQLVESGGGLVQPGGSLRLSCAASGGTIGGSAVHWVRQAPGKGLVWVSRILTYSSTTQYAESVKGRFTISRDNAKNTLYLQMNSLRAEDTAVYYCARGSSEYPKFDIWGQGTLVTVSS
VL: DIQMTQSPSTLSASVGDRVTITCRASQSISSWLAWYQQKPGKAPKLLIYDASSLESGVPSRFSGSGSGTEFTLTISSLQPEDFATYYCHQLLIYPHTFGQGTKVEIKR
notes: Human IgG1f with AEASS effector-silencing residues, kappa light chain
B5: CAN04_h_FabCys-AviH (Fab, V domains shown)
VH: B1 VH
VL: B1 VL
notes: Tested as disulphide-linked Fab with Avi and His tags; also called CAN04 in FabCys-AviHis format; CAN04 (R001031)
B6: 1A05_rbh_FabCys-AviH (Fab, V domains shown)
VH: LEQSGGGAEGGLVKPGGSLELCCKASGFSLSTSYWRCWVRQAPGKGLEWIGCIYAGSGDVTYYANWVNGRFTLSRDIDQSTGCLQLNSLTAADTAMYYCASGVGFGYFNLWGQGTLVTVSS
VL: ALVMTQTPSPVSAAVGGTVTINCQASEDIYSNLAWFQQKPGQPPKLLIYDASTLASGVPSRFSGSGSGTEFTLTISGLQSDDAATYYCLGVYTHISADNAFGGGTEVVVKR
notes: Tested as disulphide-linked Fab with Avi and His tags; also called 1A05 in FabCys-AviHis format; 1A05 (R001032)

Experiments:
[1] = target: T1, human IL1RAcP domain 3 (AG-12127); experiment: ELISA on directly coated human IL-1RAcP domain 3 (AG-12127), IgG titrated, S/BG
[2] = target: T3, cyIL-1RAP(1-367)_F-chLys_Avi (cynomolgus, biotinylated (Avi tag) in SPR; unlabeled in SET); experiment: solution equilibrium titration (SET), ECL read-out, IgG
T3 construct: cynomolgus IL-1RAcP (21-367) is UniProt A0A2K5X5J5; also called cynomolgus IL-1RAcP (AG-12211)
Procedure: (§1) MSD SulfoTAG™ NHS-Ester (Meso Scale Diagnostics) according to the manufacturer's instructions. […] Serial dilutions of unlabeled antigen were prepared, starting with a concentration at least 10 times higher than the expected KD. Wells without antigen were used to determine Bₘₐₓ values;
(§2) wells containing only assay buffer were used to determine background. […] MSD plates were coated with antigen on standard plates (30 μL per well). After washing the plate with PBS with 0.05% Tween 20, the equilibrated samples were transferred to the plates and incubated for 20 min. […] After washing the MSD plate and adding 30 μL/well MSD Read Buffer T with surfactant, electrochemiluminescence signals were detected using a MESO SECTOR S 600 (Meso Scale Diagnostics).
(§3) The data was evaluated with XLfit (IDBS) software applying customized fitting models.

[3] = target: cynomolgus IL-1RAcP on cells (cynomolgus, UniProt A0A2K5X5J5 21-570); experiment: cell-based or functional assay
human IL-1RAcP on cells = human IL-1RAcP on cells (human, UniProt Q9NPH3 21-570); experiment: cell-based or functional assay
[4] = target: T2, human IL1RAcP domain 1 (AG-12335); experiment: ELISA on directly coated human IL-1RAcP domain 1 (AG-12335), IgG titrated, S/BG
Procedure: All were assessed with direct coating of the antigen. […] An anti-His antibody served as positive control.

[5] = target: T4, human IL1RAcP domain 1/2 (AG-12337) (human); experiment: ELISA on directly coated human IL-1RAcP domain 1/2 (AG-12337), IgG1f_AEASS titrated, S/BG
T4 construct: also called domain 1/2 of human IL-1RAcP

[6] = target: T5, hIL-1RAP(1-367)_F-chLys_Avi (human, biotinylated (Avi tag) in SPR and ELISA binning; unlabeled in SET); experiment: solution equilibrium titration (SET), ECL read-out, IgG
T5 construct: also called human IL-1RAcP (AG-12210)
Procedure: as §1, §2, §3

[7] = target: T3, cyIL-1RAP(1-367)_F-chLys_Avi; experiment: ELISA on cynomolgus IL-1RAcP (AG-12211), IgG1f_AEASS titrated 0.007-200 nM, AP-coupled secondary antibody with AttoPhos, signal over background (S/BG)
Source text: (§4) Bound antibodies were detected using respective alkaline-phosphatase (AP) coupled secondary antibodies in combination with ‘AttoPhos’ fluorescence substrate. Multiple washing steps have been performed in between individual assay steps.

[8] = target: T5, hIL-1RAP(1-367)_F-chLys_Avi; experiment: ELISA on human IL-1RAcP (AG-12210), IgG1f_AEASS titrated 0.007-200 nM, AP-coupled secondary antibody with AttoPhos, signal over background (S/BG)
Source text: as §4

[9] = target: T5, hIL-1RAP(1-367)_F-chLys_Avi; experiment: SET, ratio of KD values
[10] = target: T3, cyIL-1RAP(1-367)_F-chLys_Avi; experiment: SET, ratio of KD values
recombinant rat IL-1RAcP = recombinant rat IL-1RAcP (rat, UniProt Q63621 21-367, limits assumed); experiment: ELISA (FIG. 1-3 cited)
[11] = target: T6, mouse (AG-12212) IL-1RAcP (mouse, UniProt Q61730 21-367, limits assumed); experiment: ELISA in Fc-capture mode of the IgGs, mouse IL-1RAcP (AG-12212), S/BG
T6 construct: Recombinant tagged antigen; also called recombinant mouse IL-1RAcP; mouse IL-1RAP
Source text: as §4

[12] = target: T3, cyIL-1RAP(1-367)_F-chLys_Avi; experiment: SPR (Biacore), biotinylated antigen captured, FabCys-AviHis as analyte, 1:1 fit
Procedure: (§5) Approximately 3000 RU capture reagent was bound. This surface was used to load biotinylated antigen to generate a low-density surface for subsequent kinetic characterization (approx. 60-100 RU antigen loaded). […] After injecting the last and highest analyte concentration, a long dissociation phase was recorded. […] A blank injection of assay buffer (HBS-EP+) following the same injection pattern as described above was recorded and subtracted from specific sensorgrams during analysis (double referencing). At the end of each cycle, the sensor was regenerated with one 120 s injection of 6 M guanidine hydrochloride in 250 mM NaOH, which completely removed capture reagent with loaded biotinylated antigen and bound Fab fragments. The obtained sensorgrams were fitted to a monovalent binding model using Biacore Insight Evaluation Software. The obtained values for rate constants kₒₙ and koff were used to calculate KD.

[13] = target: T5, hIL-1RAP(1-367)_F-chLys_Avi; experiment: as above
Procedure: as §5

[14] = target: T5, hIL-1RAP(1-367)_F-chLys_Avi; experiment: ELISA binning; competitor: coated CAN04 FabCys-AviHis; 1.5 nM biotinylated human IL-1RAcP (AG-12210) pre-incubated with the titrated Fab; captured IL-1RAcP detected with streptavidin-AP
Procedure: (§6) Epitope binning was performed using an ELISA-based competition assay. The experiments were performed using either IgG1f_AEASS or FabCys-AviHis. Antibodies were diluted to three (3) nM (for IgGs) or to 20 nM (in case of Fabs) in PBS. […] The next day 90 μL/well blocking solution (5% BSA in PBS) was added to the plate followed by an incubation at RT for at least 1 h. During incubation, the competing antibodies, including reference and negative control antibodies, were diluted in assay buffer (1xPBS, 0.5% BSA, 0.02% Tween). […] Following the incubation of the blocking solution, the ELISA plates were washed 3× with PBST. Subsequently, 20 μl/well of the prepared antibody/antigen solution was transferred to the wells and incubated for 30 min with gentle agitation. Subsequently, plates were washed 3× using PBS-T.
(§7) For detection 20 μl of a prepared streptavidin-alkaline phosphatase conjugate solution was added to the wells in order to detect bound biotinylated human IL-1RAcP. Incubation happened for 30 min with gentle agitation. Following the incubation with streptavidin-alkaline phosphatase conjugate, assay plates were washed 5× with PBS-T. Then 20 μl of AttoPhos substrate (diluted 1:5 in H₂O) was added to the wells. Plates were incubated for 10 min at RT and readout happened using a Tecan M1000 Pro Reader.
(§8) Every graph represents an individual first antibody in the FabCys-AviHis format coated on the surface. […] Subsequently, preformed antigen antibody complex was added to the respective wells with the surface coated first antibody. Detection happened via the biotin of IL-1RAcP using a streptavidin-alkaline phosphatase conjugate.

[15] = target: T5, hIL-1RAP(1-367)_F-chLys_Avi; experiment: ELISA binning; competitor: coated Y024149 FabCys-AviHis (sheet title Y024149_FAB COATED); 1.5 nM biotinylated human IL-1RAcP (AG-12210) pre-incubated with the titrated Fab; captured IL-1RAcP detected with streptavidin-AP
Procedure: as §6, §7, §8

[16] = target: T5, hIL-1RAP(1-367)_F-chLys_Avi; experiment: ELISA binning; competitor: coated Y024084 FabCys-AviHis (sheet title Y024084_FAB COATED); 1.5 nM biotinylated human IL-1RAcP (AG-12210) pre-incubated with the titrated Fab; captured IL-1RAcP detected with streptavidin-AP
Procedure: as §6, §7, §8

[17] = target: T5, hIL-1RAP(1-367)_F-chLys_Avi; experiment: ELISA binning; competitor: coated Y024148 FabCys-AviHis; 1.5 nM biotinylated human IL-1RAcP (AG-12210) pre-incubated with the titrated Fab; captured IL-1RAcP detected with streptavidin-AP
Procedure: as §6
For detection 20 μl of a prepared streptavidin-alkaline phosphatase conjugate solution was added to the wells in order to detect bound biotinylated human IL-1RAcP. Incubation happened for 30 min with gentle agitation. Following the incubation with streptavidin-alkaline phosphatase conjugate, assay plates were washed 5× with PBS-T. Then 20 μl of AttoPhos substrate (diluted 1:5 in H₂O) was added to the wells. Plates were incubated for 10 min at RT and readout happened using a Tecan M1000 Pro Reader. […]

Row | Binder | binding result [1] | Kd [2] | IC50, IL-8 release, CyDFa stimulated with cynomolgus IL-1β [3] | IC50, IFNγ release, PBMC stimulated with IL-1β (human IL-1RAcP on cells) | IC50, IFNγ release, PBMC stimulated with IL-33 (human IL-1RAcP on cells) | IC50, IL-8 release, HDFa stimulated with IL-1α (human IL-1RAcP on cells) | IC50, IL-8 release, HDFa stimulated with IL-36α (human IL-1RAcP on cells) | IC50, IL-8 release, HDFa stimulated with IL-36β (human IL-1RAcP on cells) | IC50, IL-8 release, HDFa stimulated with IL-36γ (human IL-1RAcP on cells) | IC50, IL-8 release, HEKa stimulated with IL-1β (human IL-1RAcP on cells) | IC50, IL-8 release, HEKa stimulated with IL-36β (human IL-1RAcP on cells) | binding result [4] | EC50 (read off the curve) [5] | Kd [6] | EC50 (read off the curve) [7] | EC50 (read off the curve) [8] | Kd [12] | Kd [13] | IC50 (read off the curve) [14] | IC50 (read off the curve) [15] | further results
1 | B1 | no binding (tested: 2e-7 M) | 16 pM | 1 nM | 3.5 nM | 1.3 nM | 3.6 nM | 0.019 nM | 0.024 nM | 0.008 nM | 18 nM | 0.02 nM | no binding (tested: 2e-7 M) | ~3 nM | 21 pM |  |  |  |  |  |  | 
2 | B2 |  | 3 pM | 1 nM | 4.6 nM | 0.82 nM | 22 nM | 0.18 nM | 0.28 nM | 0.24 nM | 670 nM | 1.98 nM |  |  | 3 pM |  |  |  |  |  |  | 
3 | B3 | no binding (tested: 2e-7 M) | 4 pM | 0.12 nM | 5.2 nM | 0.69 nM | 20 nM | 0.025 nM | 0.033 nM | 0.022 nM | 19 nM | 0.029 nM | no binding (tested: 2e-7 M) | ~3 nM | 4 pM | 0.1 to 0.2 nM | 0.1 to 0.2 nM |  |  |  |  | 
4 | B4 | no binding (tested: 2e-7 M) | 1 pM | 0.043 nM | 1.2 nM | 0.72 nM | 1.2 nM | 0.014 nM | 0.039 nM | 0.042 nM | 35 nM | 0.2 nM | no binding (tested: 2e-7 M) | ~6 nM | 2 pM | 0.1 to 0.2 nM | 0.1 to 0.2 nM |  |  |  |  | fold stronger KD than reference R001031 (CAN04) [9]: ~10.5 fold; fold stronger KD than reference R001032 (1A05) [9]: ~5.5 fold; fold stronger KD than reference R001031 (CAN04) [10]: ~16 fold; fold stronger KD than reference R001032 (1A05) [10]: ~15 fold; binding result (recombinant rat IL-1RAcP): no binding; binding result [11]: no binding (tested: 200 nM)
5 | B5 |  |  |  |  |  |  |  |  |  |  |  |  |  |  |  |  | 0.128 nM | 0.167 nM | ~1 nM | ~2 nM | IC50 (read off the curve) [16]: ~1 nM
6 | B6 |  |  |  |  |  |  |  |  |  |  |  |  |  |  |  |  | 0.184 nM | 0.221 nM | ~1 nM | ~1 nM | IC50 (read off the curve) [17]: ~1 nM; IC50 (read off the curve) [16]: ~1 nM
